Test results published in patent US20060024786.

System: full length human N-WASP (Myc-N-WASP-TAP)

N_GST_tev_Rac1 GTP (bacterial GST tagged Rac1 protein)
activation of FL N-WASP (barbed ends, actin polymerization assay): Rac1 can activate FL N-WASP | activation of FL N-WASP against Cdc42: Rac1 was a more potent N-WASP activator than Cdc42 in the absence of PIP2 vesicles | dose dependence of barbed end concentration: there is a bell shaped dose dependence for Nck1, Nck2 and Rac1
